These results are taken from paper PMC7217966.

pKd: −log10 of the molar value.

Assay [1] deals with CsgG (Escherichia coli) (UniProt P0AEA2). The following applies: cited from earlier work.
Assay [2] addresses CsgG-6xHis (E. coli) (UniProt P0AEA2). As to the kind of experiment: SPR; Biacore 3000, NTA sensor chip activated with NiSO4; CsgG-His (200 nM) immobilised via the His-tag; N22 peptide injected at 50 μl/min, 20 − 1 nM; 10 mM HEPES, 150 mM NaCl, 0.36 mM DDM, pH 8.0; non-activated reference flow cell; 1:1 binding model.

As a reminder, the pKd is the negative decadic logarithm of the Kd, by convention in mol/L. As for “CsgA N6 peptide N6 (from UniProt P28307)”, in assay [1], the negative-log Kd (pKd) is 4.55. CsgA N22 peptide: the pKd in assay [2] is 6.28.
